What all share (assay): time-resolved fluorescence immunoassay (TR-FIA); plate coated with monoclonal anti-PBX1; PBX1 pre-incubated with PREP1 or MEIS1 for 1 h on ice, 10 µg/mL in 1% BSA PBS, 1 h at room temperature on the plate; detected with anti-PREP1 or biotinylated anti-MEIS1/2 and Eu^3+ conjugates; normalised to the wild-type protein taken as 1
The target in assay [1] is T1, PBX1_(1-430), wild-type recombinant (human, UniProt P40424 1-430).
T1 construct: also called wild-type PBX1; purified recombinant human PBX1; source: E. coli, purified
T1 sequence (looked up): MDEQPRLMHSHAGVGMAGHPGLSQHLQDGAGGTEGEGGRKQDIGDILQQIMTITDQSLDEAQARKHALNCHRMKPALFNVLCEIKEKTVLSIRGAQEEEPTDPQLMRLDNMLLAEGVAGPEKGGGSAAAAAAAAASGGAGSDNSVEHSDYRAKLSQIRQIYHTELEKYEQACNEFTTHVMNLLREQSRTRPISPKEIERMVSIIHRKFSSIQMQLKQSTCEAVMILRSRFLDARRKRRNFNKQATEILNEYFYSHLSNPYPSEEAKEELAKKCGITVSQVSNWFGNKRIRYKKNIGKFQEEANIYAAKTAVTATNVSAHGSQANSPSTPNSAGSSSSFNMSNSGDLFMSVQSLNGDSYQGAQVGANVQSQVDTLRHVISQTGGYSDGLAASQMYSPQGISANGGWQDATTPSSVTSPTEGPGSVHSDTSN

Assay [2] concerns the target T2, PREP1_(1-436), wild-type recombinant (TR-FIA) (UniProt P55347 1-436).
T2 construct: also called wild-type PREP1; PKNOX1; source: E. coli, purified
T2 sequence (looked up): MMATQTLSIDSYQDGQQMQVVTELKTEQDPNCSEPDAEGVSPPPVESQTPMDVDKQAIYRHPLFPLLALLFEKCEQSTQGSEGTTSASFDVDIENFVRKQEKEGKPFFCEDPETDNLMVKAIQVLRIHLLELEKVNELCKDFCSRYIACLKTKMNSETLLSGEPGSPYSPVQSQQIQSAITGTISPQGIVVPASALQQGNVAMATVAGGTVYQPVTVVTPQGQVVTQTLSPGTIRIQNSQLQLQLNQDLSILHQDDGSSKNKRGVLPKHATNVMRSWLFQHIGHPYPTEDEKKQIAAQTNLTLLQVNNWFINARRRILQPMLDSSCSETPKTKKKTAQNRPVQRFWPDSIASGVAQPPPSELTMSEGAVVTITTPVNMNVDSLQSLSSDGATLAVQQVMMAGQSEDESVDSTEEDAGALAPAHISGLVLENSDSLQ
The note with it: both partners purified.

For another assay, the target named is PBX1Δ197-204 (human) (UniProt P40424).
In another assay the target is T3, PBX1Δ43-55 (human, UniProt P40424 1-430, Δ43-55).
T3 construct: PBX1, residues 1-430, with an internal deletion; source: E. coli, purified
T3 sequence (looked up): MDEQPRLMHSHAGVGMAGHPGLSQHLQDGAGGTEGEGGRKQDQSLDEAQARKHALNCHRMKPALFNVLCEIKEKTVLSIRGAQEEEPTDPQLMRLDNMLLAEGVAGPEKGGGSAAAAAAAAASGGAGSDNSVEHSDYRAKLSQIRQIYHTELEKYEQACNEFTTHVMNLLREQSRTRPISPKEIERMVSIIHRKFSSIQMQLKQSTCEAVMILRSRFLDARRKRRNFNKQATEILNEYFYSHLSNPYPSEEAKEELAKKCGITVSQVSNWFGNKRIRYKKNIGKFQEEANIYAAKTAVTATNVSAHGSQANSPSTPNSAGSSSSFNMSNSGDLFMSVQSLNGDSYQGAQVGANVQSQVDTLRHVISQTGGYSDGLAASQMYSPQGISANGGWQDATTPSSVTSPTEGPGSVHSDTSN
The following applies: both partners purified.

A further assay deals with T4, PBX1 Δ77-84 (human, UniProt P40424 1-430, Δ77−84).
T4 construct: PBX1, residues 1-430, with an internal deletion; source: E. coli, purified
T4 sequence (looked up): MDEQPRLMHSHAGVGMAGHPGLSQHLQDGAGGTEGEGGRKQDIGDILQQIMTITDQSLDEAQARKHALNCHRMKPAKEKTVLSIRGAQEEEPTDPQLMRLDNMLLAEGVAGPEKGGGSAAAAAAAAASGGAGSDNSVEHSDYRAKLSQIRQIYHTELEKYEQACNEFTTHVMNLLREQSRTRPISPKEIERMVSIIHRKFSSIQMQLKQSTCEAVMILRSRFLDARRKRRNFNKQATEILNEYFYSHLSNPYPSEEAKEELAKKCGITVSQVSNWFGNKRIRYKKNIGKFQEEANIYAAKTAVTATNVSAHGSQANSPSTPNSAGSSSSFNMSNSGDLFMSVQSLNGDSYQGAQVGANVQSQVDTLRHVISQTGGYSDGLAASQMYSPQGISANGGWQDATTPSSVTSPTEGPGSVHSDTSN
The note with it: both partners purified.

In the next assay the target is T5, PBX1 Δ105-113 (human, UniProt P40424 1-430, Δ105-113).
T5 construct: PBX1, residues 1-430, with an internal deletion; source: E. coli, purified
T5 sequence (looked up): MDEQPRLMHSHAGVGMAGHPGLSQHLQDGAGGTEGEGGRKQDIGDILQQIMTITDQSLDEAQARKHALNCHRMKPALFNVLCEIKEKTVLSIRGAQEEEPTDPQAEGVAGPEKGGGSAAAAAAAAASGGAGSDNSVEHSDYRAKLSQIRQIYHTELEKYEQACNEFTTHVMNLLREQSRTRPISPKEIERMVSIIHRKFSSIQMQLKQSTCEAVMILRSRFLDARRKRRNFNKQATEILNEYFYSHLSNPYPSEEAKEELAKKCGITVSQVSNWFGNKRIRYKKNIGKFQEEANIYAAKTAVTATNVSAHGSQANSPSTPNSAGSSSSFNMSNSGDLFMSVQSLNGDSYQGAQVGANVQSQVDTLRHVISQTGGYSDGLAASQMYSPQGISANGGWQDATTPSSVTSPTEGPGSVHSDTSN
The note with it: both partners purified.

Where two headings read alike, the source gives them in different places.

On to “PREP1 HR2m (I122A/L125A/L129A/L132A), TR-FIA (from UniProt P55347 1-436) (natural protein)”, for which the binding relative to wild type in assay [1] was determined as 30%.

B1: PBX1 V80A/L81A (natural protein, human, UniProt P40424 1-430, looked up)
chain: MDEQPRLMHSHAGVGMAGHPGLSQHLQDGAGGTEGEGGRKQDIGDILQQIMTITDQSLDEAQARKHALNCHRMKPALFNAACEIKEKTVLSIRGAQEEEPTDPQLMRLDNMLLAEGVAGPEKGGGSAAAAAAAAASGGAGSDNSVEHSDYRAKLSQIRQIYHTELEKYEQACNEFTTHVMNLLREQSRTRPISPKEIERMVSIIHRKFSSIQMQLKQSTCEAVMILRSRFLDARRKRRNFNKQATEILNEYFYSHLSNPYPSEEAKEELAKKCGITVSQVSNWFGNKRIRYKKNIGKFQEEANIYAAKTAVTATNVSAHGSQANSPSTPNSAGSSSSFNMSNSGDLFMSVQSLNGDSYQGAQVGANVQSQVDTLRHVISQTGGYSDGLAASQMYSPQGISANGGWQDATTPSSVTSPTEGPGSVHSDTSN
notes: PBX1, residues 1-430; source: E. coli, purified
Turning to B1, in assay [2], the binding result was “binds”.

B2: PREP1 L132A (natural protein, UniProt P55347 1-436, looked up)
chain: MMATQTLSIDSYQDGQQMQVVTELKTEQDPNCSEPDAEGVSPPPVESQTPMDVDKQAIYRHPLFPLLALLFEKCEQSTQGSEGTTSASFDVDIENFVRKQEKEGKPFFCEDPETDNLMVKAIQVLRIHLLEAEKVNELCKDFCSRYIACLKTKMNSETLLSGEPGSPYSPVQSQQIQSAITGTISPQGIVVPASALQQGNVAMATVAGGTVYQPVTVVTPQGQVVTQTLSPGTIRIQNSQLQLQLNQDLSILHQDDGSSKNKRGVLPKHATNVMRSWLFQHIGHPYPTEDEKKQIAAQTNLTLLQVNNWFINARRRILQPMLDSSCSETPKTKKKTAQNRPVQRFWPDSIASGVAQPPPSELTMSEGAVVTITTPVNMNVDSLQSLSSDGATLAVQQVMMAGQSEDESVDSTEEDAGALAPAHISGLVLENSDSLQ
notes: PREP1 (PKNOX1), residues 1-436
As to B2, in assay [1] (both partners purified), the “binding relative to wild type” value stood at 40%.

B3: MEIS1_(1-390), wild-type recombinant (TR-FIA) (natural protein, UniProt O00470 1-390, looked up)
chain: MAQRYDDLPHYGGMDGVGIPSTMYGDPHAARSMQPVHHLNHGPPLHSHQYPHTAHTNAMAPSMGSSVNDALKRDKDAIYGHPLFPLLALIFEKCELATCTPREPGVAGGDVCSSESFNEDIAVFAKQIRAEKPLFSSNPELDNLMIQAIQVLRFHLLELEKVHELCDNFCHRYISCLKGKMPIDLVIDDREGGSKSDSEDITRSANLTDQPSWNRDHDDTASTRSGGTPGPSSGGHTSHSGDNSSEQGDGLDNSVASPSTGDDDDPDKDKKRHKKRGIFPKVATNIMRAWLFQHLTHPYPSEEQKKQLAQDTGLTILQVNNWFINARRRIVQPMIDQSNRAVSQGTPYNPDGQPMGGFVMDGQQHMGIRAPGPMSGMGMNMGMEGQWHYM
notes: MEIS1, full length, residues 1-390; also called wild-type MEIS1; source: E. coli, purified
As to B3, the binding relative to wild type is 45% with PBX1Δ197-204 (human), 60% in the assay with PBX1Δ43-55 and 35% in the assay with PBX1 Δ77-84. Also, the binding result with PBX1 Δ105-113 was “binds”.

Source of the values: article PMC7545097, “Mapping the native interaction surfaces of PREP1 with PBX1 by cross-linking mass-spectrometry and mutagenesis” (Scientific Reports, 2020).
